The values below come from PMC12881857, “The MabZIP5–MaMYB69 module cooperates with MaERF55 to modulate banana fruit ripening via cell wall degradation”.

Numbering of substitutions follows the chain as printed.

For data set [1], the target named is T1, GST-MaMYB69 (banana, UniProt A0A804IQI7 1-348).
T1 sequence: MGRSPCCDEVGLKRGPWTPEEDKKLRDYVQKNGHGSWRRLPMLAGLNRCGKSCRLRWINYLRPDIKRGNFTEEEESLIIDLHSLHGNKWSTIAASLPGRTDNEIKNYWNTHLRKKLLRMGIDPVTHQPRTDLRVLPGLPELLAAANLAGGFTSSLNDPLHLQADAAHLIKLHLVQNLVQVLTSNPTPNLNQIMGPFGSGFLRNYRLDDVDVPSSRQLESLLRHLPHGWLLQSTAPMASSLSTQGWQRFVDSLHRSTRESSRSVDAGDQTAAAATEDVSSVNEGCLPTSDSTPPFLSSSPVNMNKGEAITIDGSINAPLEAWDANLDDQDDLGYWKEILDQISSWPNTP
In words: EMSA; Chemiluminescent EMSA Kit (Beyotime); buffer, salt, pH and temperature not stated. Particulars: protein: recombinant, tags: GST (N-term, pGEX-4T-1), blunt. On the technique in general: A gel shift assay detects complexes by their altered migration in electrophoresis.

Data set [2] deals with T1, GST-MaMYB69. In words: competition; 50-fold excess mutant competitor vs N9; Chemiluminescent EMSA Kit (Beyotime); buffer, salt, pH and temperature not stated. The following applies: protein: recombinant; tags: GST (N-term, pGEX-4T-1); blunt.
Data set [3] addresses T1, GST-MaMYB69. As to the kind of experiment: competition; 50-fold excess mutant competitor vs N5; Chemiluminescent EMSA Kit (Beyotime); buffer, salt, pH and temperature not stated. The following applies: protein: recombinant; tags: GST (N-term, pGEX-4T-1); blunt.
Data set [4] has as its target T1, GST-MaMYB69. In words: competition; 50-fold excess mutant competitor vs N7; Chemiluminescent EMSA Kit (Beyotime); buffer, salt, pH and temperature not stated. The following applies: protein: recombinant; tags: GST (N-term, pGEX-4T-1); blunt.
The target in data set [5] is T1, GST-MaMYB69. In words: competition; 50-fold excess mutant competitor vs N3; Chemiluminescent EMSA Kit (Beyotime); buffer, salt, pH and temperature not stated. Particulars: protein: recombinant; tags: GST (N-term, pGEX-4T-1); blunt.
Data set [6] addresses T1, GST-MaMYB69. As to the kind of experiment: competition; 50-fold excess mutant competitor vs N1; Chemiluminescent EMSA Kit (Beyotime); buffer, salt, pH and temperature not stated. The following applies: protein: recombinant; tags: GST (N-term, pGEX-4T-1); blunt.

B1: MaACO1 promoter probe (dsDNA)
DNA 1: ATTGCTTTCTTGTGGCCACCAACCGGAGAAAGGGAGTCTA
DNA 2: TAGACTCCCTTTCTCCGGTTGGTGGCCACAAGAAAGCAAT
Turning to B1, in the data set with GST-MaMYB69 [1], the binding result is given as “binds”.

B2: MaMYB69 mutant probe (dsDNA)
DNA 1: AGGTGCCATGCCGCACTTTTTTAAAAAATCTGCCCTTTTG
DNA 2: CAAAAGGGCAGATTTTTTAAAAAAGTGCGGCATGGCACCT
Regarding B2, the binding result in the data set with GST-MaMYB69 [2] is “no binding”.

B3: MaGAL mutant probe (dsDNA)
DNA 1: GTAGGGAGTTTTTTTTGCTTGTGTGTGAAAAAAAGATAAA
DNA 2: TTTATCTTTTTTTCACACACAAGCAAAAAAAACTCCCTAC
With B3, in the data set with GST-MaMYB69 [3], the binding result was “no binding”.

B4: MaPG3 mutant probe (dsDNA)
DNA 1: AGGCATCCAACAACTTTCTCCTTTTTTCTTGCTTGCATAC
DNA 2: GTATGCAAGCAAGAAAAAAGGAGAAAGTTGTTGGATGCCT
For the molecule B4, in the data set with GST-MaMYB69 [4], the binding result is listed as “no binding”.

B5: MaPL1 mutant probe (dsDNA)
DNA 1: TCCTGCATCTTGGACGAGAAAAAAGTACCCAAAGAGGACG
DNA 2: CGTCCTCTTTGGGTACTTTTTTCTCGTCCAAGATGCAGGA
Consider B5, for which the binding result with GST-MaMYB69 [5] is recorded as “no binding”.

B6: MaMYB69 promoter probe (dsDNA)
DNA 1: AGGTGCCATGCCGCACACCTAAACCTCTTCTGCCCTTTTG
DNA 2: CAAAAGGGCAGAAGAGGTTTAGGTGTGCGGCATGGCACCT
For the molecule B6, in the data set with GST-MaMYB69 [1] (label: biotin), the binding result is reported as “binds”.

B7: MaGAL promoter probe (dsDNA)
DNA 1: GTAGGGAGACCAAATTGCTTGTGTGTGTTTGGTAGATAAA
DNA 2: TTTATCTACCAAACACACACAAGCAATTTGGTCTCCCTAC
For the molecule B7, the binding result in the data set with GST-MaMYB69 [1] (label: biotin) is “binds”.

B8: MaPL1 promoter probe (dsDNA)
DNA 1: TCCTGCATCTTGGACGAGTTTGGTGTACCCAAAGAGGACG
DNA 2: CGTCCTCTTTGGGTACACCAAACTCGTCCAAGATGCAGGA
As to B8, the binding result with GST-MaMYB69 [1] (label: biotin) is listed as “binds”.

B9: MaPG3 promoter probe (dsDNA)
DNA 1: AGGCATCCAACAACTTTCTCCACCAACCTTGCTTGCATAC
DNA 2: GTATGCAAGCAAGGTTGGTGGAGAAAGTTGTTGGATGCCT
As to B9, the binding result with GST-MaMYB69 [1] (label: biotin) is “binds”.

B10: MaPE promoter probe (dsDNA)
DNA 1: GTGTCGATGGTGAAGTGTTTGGAGAAGTAGGAGCGGCAGC
DNA 2: GCTGCCGCTCCTACTTCTCCAAACACTTCACCATCGACAC
Turning to B10, in the data set with GST-MaMYB69 [1] (label: biotin), the binding result is listed as “binds”.

B11: MaPE mutant probe (dsDNA)
DNA 1: B10 DNA 1 with G6A, T8A, G9A, G10A, T11A
DNA 2: B10 DNA 2 with A30T, C31T, C32T, A33T, C35T
As for B11, in the data set with GST-MaMYB69 [6], the binding result is listed as “no binding”.
